What is called EC50 is the concentration that produces a half-maximal response. High values mean lower potency in that assay, low ones higher potency in that assay.

This note sets out measurements from patent US20210214447A1 (SHANGHAI INSTITUTE OF MATERIA MEDICA CHINESE ACADEMY OF …, published 2021).

For assay [1], the target named is T1, extracellular domain of human AXL protein (AXL-ECD) (human, UniProt P30530 31-449).
T1 construct: expressed in HEK293T cells; coated on the ELISA plate; also called AXL-ECD protein; human AXL extracellular domain protein
T1 sequence: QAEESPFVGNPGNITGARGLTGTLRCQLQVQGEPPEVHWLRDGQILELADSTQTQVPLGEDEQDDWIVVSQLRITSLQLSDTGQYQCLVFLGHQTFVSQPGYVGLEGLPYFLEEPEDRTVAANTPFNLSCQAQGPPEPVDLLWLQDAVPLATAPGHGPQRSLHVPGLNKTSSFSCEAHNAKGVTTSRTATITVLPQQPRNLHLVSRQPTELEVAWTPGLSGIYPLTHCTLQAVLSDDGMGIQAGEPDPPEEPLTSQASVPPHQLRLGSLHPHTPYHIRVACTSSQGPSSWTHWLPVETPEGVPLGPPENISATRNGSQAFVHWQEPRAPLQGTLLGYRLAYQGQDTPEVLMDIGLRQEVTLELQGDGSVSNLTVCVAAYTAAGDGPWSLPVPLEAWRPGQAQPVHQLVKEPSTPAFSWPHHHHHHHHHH
Briefly: ELISA, plate-coated AXL-ECD. The protocol:
The extracellular domain of AXL protein (AXL-ECD) was diluted to […] with the coating solution, and coated onto ELISA plate with 100 μL/well at 4° C. overnight. The excess antigen was washed off. The plate was blocked with 1% BSA at room temperature for 2 h, then each monoclonal antibody in a 3-fold dilution was added at 100 µL/well. The plate was incubated at room temperature for 1 h; the unbound antibody was washed off, and appropriate concentration of anti-mouse secondary antibody labeled with horseradish peroxidase was added at 100 µL/well. The plate was incubated at room temperature for 0.5 h. The unbound secondary antibody was washed off. TMB Substrate was added and reacted for about 15 minutes. 1N HCL was added at 50 µL/well to stop the color reaction. Then the absorbance was measured at 450 nm and the obtained data was analyzed.
24 humanized antibodies in Table-6 were diluted by gradient, and their affinity to AXL-ECD protein was determined by ELISA. The experimental method was referred to Example 4.
(In general: In an ELISA, binding on a coated surface is turned into a signal by an enzyme label.)

In assay [2] the target is T2, human AXL on the surface of tumor cells (human, UniProt P30530 26-894).
T2 construct: whole, on cells; endogenous protein of human tumor cell lines; the cell line is named under assay or readout; also called AXL on the cell surface
T2 sequence (looked up): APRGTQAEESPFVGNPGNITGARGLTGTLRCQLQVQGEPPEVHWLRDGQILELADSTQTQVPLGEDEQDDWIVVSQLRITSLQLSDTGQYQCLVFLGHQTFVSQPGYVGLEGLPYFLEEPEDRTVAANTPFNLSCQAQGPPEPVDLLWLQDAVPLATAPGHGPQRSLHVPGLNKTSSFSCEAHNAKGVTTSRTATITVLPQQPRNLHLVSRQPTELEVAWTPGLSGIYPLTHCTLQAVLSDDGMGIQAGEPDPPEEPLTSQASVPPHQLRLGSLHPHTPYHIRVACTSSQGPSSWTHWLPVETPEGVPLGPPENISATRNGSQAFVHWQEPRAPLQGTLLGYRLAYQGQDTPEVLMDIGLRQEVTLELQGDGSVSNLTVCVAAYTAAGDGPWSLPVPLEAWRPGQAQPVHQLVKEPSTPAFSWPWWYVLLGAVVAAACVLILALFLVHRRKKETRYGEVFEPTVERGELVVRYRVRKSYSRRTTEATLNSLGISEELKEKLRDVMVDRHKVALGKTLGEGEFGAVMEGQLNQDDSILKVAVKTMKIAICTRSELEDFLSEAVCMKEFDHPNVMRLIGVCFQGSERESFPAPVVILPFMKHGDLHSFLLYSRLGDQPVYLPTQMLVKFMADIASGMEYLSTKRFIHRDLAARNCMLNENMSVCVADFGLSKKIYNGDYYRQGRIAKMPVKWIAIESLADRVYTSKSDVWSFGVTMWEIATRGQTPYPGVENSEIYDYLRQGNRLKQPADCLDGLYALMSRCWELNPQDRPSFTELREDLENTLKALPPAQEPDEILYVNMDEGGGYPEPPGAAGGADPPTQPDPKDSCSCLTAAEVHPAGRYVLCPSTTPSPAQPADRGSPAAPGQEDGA
The experiment in a line: FACS on LCLC-103H cells. The protocol: (§1) Then the obtained solutions were incubated at 4° C. for 1 h, the cells were washed twice with PBS to remove unbound primary antibody, and then the target cells were incubated with 200 μL PE-labeled secondary antibody (2 μg/mL) at 4° C. for 30 min. The cells were washed twice with PBS to remove unbound secondary antibody. Finally, the cells were resuspended in 200 μL PBS, and the binding affinity of the test antibody to AXL on the cell surface was determined by a flow cytometer (FACSCalibur)
The experimental method was referred to Example 8.

Assay [3] deals with T2, human AXL on the surface of tumor cells. Briefly: FACS on MDA-MB-231 cells. The method, then: as §1
24 humanized antibodies in Table-6 were diluted by gradient, and their affinities to AXL, on the surface of MDA-MB-231 cells were determined by flow cytometer. The experimental method was referred to Example 8.

B1: Hu002-5 (antibody, V domains shown)
VH: QVQLVQSGAEVKKPGASVKVSCKASGYPFTDFYINWVRQAPGQGLEWMGWIYPGSGNTKYNEKFKGRVTLTVDTSISTAYMELSRLRSDDTAVYYCARSTGFFDYWGQGTLVTVSS
VL: EIVLTQSPATLSLSPGERATLSCSASSSIGYMYWYQQKPGQAPRLLIYLTSNLASGIPARFSGSGSGTDYTLTISSLEPEDFAVYYCQQWSSNPPTFGQGTKLEIK
notes: humanized from mAb002c; also called Hu002c-5
Consider B1, for which the EC50 came out at 0.05 nM in assay [1], 0.36 nM in assay [2] and 0.114 nM in assay [3]. Also, the “TOP (OD450)” value in assay [1] worked out at 3.59 OD450. In addition, in assay [3], the “Highest MFI value (FACSCalibur)” value was 275 MFI.

B2: Hu002-16 (antibody, V domains shown)
VH: QVQLVQSGAEVKKPGASVKVSCKASGYPFTDFYINWVRQAPGQGLEWMGWIYPGSGNTKYNEKFKGRVTMTRDTSISTAYMELSRLRSDDTAVYYCARSTGFFDYWGQGTLVTVSS
VL: EIVLTQSPDFQSVTPKEKVTITCSASSSIGYMYWYQQKPDQSPKLLIYLTSNLASGVPSRFSGSGSGTDYTLTINSLEAEDAATYYCQQWSSNPPTFGQGTKLEIK
notes: humanized from mAb002c; also called Hu002c-16
Regarding B2, in assay [1], the concentration giving a half-maximal response (EC50) amounted to 0.047 nM and the “TOP (OD450)” value turned out to be 3.76 OD450. In addition, in assay [3], a half-maximal effect (EC50) was put at 0.082 nM and the “Highest MFI value (FACSCalibur)” value stood at 282 MFI.

B3: Hu002-22 (antibody, V domains shown)
VH: QVQLVQSGAEVKKPGASVKVSCKASGYPFTDFYINWVRQAPGQGLEWMGWIYPGSGNTKYNEKFKGRVTMTRDTSISTAYMELSRLRSDDTAVYYCARSTGFFDYWGQGTLVTVSS
VL: QIVLTQSPDFQSVTPKEKVTITCSASSSIGYMYWYQQKPDQSPKSLIYLTSNLASGVPSRFSGSGSGTDYTLTINSLEAEDAATYYCQQWSSNPPTFGQGTKLEIK
notes: humanized from mAb002c; also called Hu002c-22
On to B3, for which, in assay [1], the half-maximal effective concentration (EC50) came out at 0.059 nM and the “TOP (OD450)” value came to 3.67 OD450. Besides, in assay [3], the response was half-maximal at 0.134 nM (EC50) and the “Highest MFI value (FACSCalibur)” value came out at 276 MFI.

B4: Hu002-18 (antibody, V domains shown)
VH: QVQLVQSGAEVKKPGASVKVSCKASGYPFTDFYINWVKQAPGQGLEWIGWIYPGSGNTKYNEKFKGRVTLTVDTSISTAYMELSRLRSDDTAVYYCARSTGFFDYWGQGTLVTVSS
VL: EIVLTQSPDFQSVTPKEKVTITCSASSSIGYMYWYQQKPDQSPKLLIYLTSNLASGVPSRFSGSGSGTDYTLTINSLEAEDAATYYCQQWSSNPPTFGQGTKLEIK
notes: humanized from mAb002c; also called Hu002c-18
Take B4: in assay [1], the EC50 is 0.055 nM and the “TOP (OD450)” value is 3.71 OD450. Also, in assay [3], a half-maximal effect (EC50) was put at 0.111 nM and the “Highest MFI value (FACSCalibur)” value came to 277 MFI.

B5: Hu002-20 (antibody, V domains shown)
VH: QVQLVQSGAEVKKPGASVKVSCKASGYPFTDFYINWVRQAPGQGLEWMGWIYPGSGNTKYNEKFKGRVTLTVDTSISTAYMELSRLRSDDTAVYYCARSTGFFDYWGQGTLVTVSS
VL: EIVLTQSPDFQSVTPKEKVTITCSASSSIGYMYWYQQKPDQSPKSLIYLTSNLASGVPSRFSGSGSGTDYTLTINSLEAEDAATYYCQQWSSNPPTFGQGTKLEIK
notes: humanized from mAb002c; also called Hu002c-20
Consider B5, for which, in assay [1], the concentration giving a half-maximal response (EC50) stood at 0.054 nM and the “TOP (OD450)” value came to 3.71 OD450. Also, in assay [3], the EC50 worked out at 0.099 nM and the “Highest MFI value (FACSCalibur)” value stood at 277 MFI.

B6: Hu002-1 (antibody, V domains shown)
VH: QVQLVQSGAEVKKPGASVKVSCKASGYPFTDFYINWVRQAPGQGLEWMGWIYPGSGNTKYNEKFKGRVTMTRDTSISTAYMELSRLRSDDTAVYYCARSTGFFDYWGQGTLVTVSS
VL: EIVLTQSPATLSLSPGERATLSCSASSSIGYMYWYQQKPGQAPRLLIYLTSNLASGIPARFSGSGSGTDFTLTISSLEPEDFAVYYCQQWSSNPPTFGQGTKLEIK
notes: humanized from mAb002c; also called Hu002c-1
As to B6, in assay [1], the EC50 stood at 0.07 nM and the “TOP (OD450)” value came out at 3.62 OD450. The molecule further returned a concentration giving a half-maximal response (EC50) in assay [2] of 0.28 nM. Besides, in assay [3], the EC50 was 0.101 nM and the “Highest MFI value (FACSCalibur)” value came out at 277 MFI.

B7: Hu002-19 (antibody, V domains shown)
VH: QVQLVQSGAEVKKPGASVKVSCKASGYPFTDFYINWVRQAPGQGLEWMGWIYPGSGNTKYNEKFKGRVTMTRDTSISTAYMELSRLRSDDTAVYYCARSTGFFDYWGQGTLVTVSS
VL: EIVLTQSPDFQSVTPKEKVTITCSASSSIGYMYWYQQKPDQSPKSLIYLTSNLASGVPSRFSGSGSGTDYTLTINSLEAEDAATYYCQQWSSNPPTFGQGTKLEIK
notes: humanized from mAb002c; also called Hu002c-19
B7: in assay [1], the EC50 amounted to 0.059 nM and the “TOP (OD450)” value turned out to be 3.73 OD450. For the same molecule, in assay [3], the EC50 is 0.121 nM and the “Highest MFI value (FACSCalibur)” value came to 278 MFI.

B8: Hu002-15 (antibody, V domains shown)
VH: QVQLVQSGAEVKKPGASVKVSCKASGYPFTDFYINWVKQAPGQGLEWIGWIYPGSGNTKYNEKFKGRVTLTVDTSISTAYMELSRLRSDDTAVYYCARSTGFFDYWGQGTLVTVSS
VL: EIVLTQSPDFQSVTPKEKVTITCSASSSIGYMYWYQQKPDQSPKLLIKLTSNLASGVPSRFSGSGSGTDFTLTINSLEAEDAATYYCQQWSSNPPTFGQGTKLEIK
notes: humanized from mAb002c; also called Hu002c-15
With B8, in assay [1], the EC50 was determined as 0.05 nM and the “TOP (OD450)” value was determined as 3.72 OD450. Further, in assay [3], the EC50 stood at 0.099 nM and the “Highest MFI value (FACSCalibur)” value came out at 268 MFI.

B9: Hu002-24 (antibody, V domains shown)
VH: QVQLVQSGAEVKKPGASVKVSCKASGYPFTDFYINWVKQAPGQGLEWIGWIYPGSGNTKYNEKFKGRVTLTVDTSISTAYMELSRLRSDDTAVYYCARSTGFFDYWGQGTLVTVSS
VL: QIVLTQSPDFQSVTPKEKVTITCSASSSIGYMYWYQQKPDQSPKSLIYLTSNLASGVPSRFSGSGSGTDYTLTINSLEAEDAATYYCQQWSSNPPTFGQGTKLEIK
notes: humanized from mAb002c; also called Hu002c-24
For B9, in assay [1], the EC50 worked out at 0.051 nM and the “TOP (OD450)” value was 3.65 OD450. In assay [3], the EC50 was 0.098 nM and the “Highest MFI value (FACSCalibur)” value was found to be 262 MFI.

B10: Hu002-23 (antibody, V domains shown)
VH: QVQLVQSGAEVKKPGASVKVSCKASGYPFTDFYINWVRQAPGQGLEWMGWIYPGSGNTKYNEKFKGRVTLTVDTSISTAYMELSRLRSDDTAVYYCARSTGFFDYWGQGTLVTVSS
VL: QIVLTQSPDFQSVTPKEKVTITCSASSSIGYMYWYQQKPDQSPKSLIYLTSNLASGVPSRFSGSGSGTDYTLTINSLEAEDAATYYCQQWSSNPPTFGQGTKLEIK
notes: humanized from mAb002c; also called Hu002c-23
As for B10, in assay [1], the EC50 turned out to be 0.057 nM and the “TOP (OD450)” value worked out at 3.69 OD450. In assay [3], the midpoint of the response, the EC50, lay at 0.098 nM and the “Highest MFI value (FACSCalibur)” value came out at 276 MFI.

B11: Hu002-21 (antibody, V domains shown)
VH: QVQLVQSGAEVKKPGASVKVSCKASGYPFTDFYINWVKQAPGQGLEWIGWIYPGSGNTKYNEKFKGRVTLTVDTSISTAYMELSRLRSDDTAVYYCARSTGFFDYWGQGTLVTVSS
VL: EIVLTQSPDFQSVTPKEKVTITCSASSSIGYMYWYQQKPDQSPKSLIYLTSNLASGVPSRFSGSGSGTDYTLTINSLEAEDAATYYCQQWSSNPPTFGQGTKLEIK
notes: humanized from mAb002c; also called Hu002c-21
For B11, in assay [1], the EC50 is 0.046 nM and the “TOP (OD450)” value stood at 3.71 OD450. For the same molecule, in assay [3], the EC50 turned out to be 0.132 nM and the “Highest MFI value (FACSCalibur)” value amounted to 273 MFI.
